The text below walks through data of the supplement of paper PMC7125110.

± gives the standard error. Variants at the floor of the assay were thinned out.

B1: glmS ribozyme (parent)
chain: AUAAAAGCGCCAGAACUACAGAAAUGUAGUUGACGAGGAGGAGGUUUAUCGAAUUUUCGGCGGAUGCCUCCAAA

What all share (conditions): with glucosamine-6-phosphate
In data set [1] the parent is B1. Briefly: self-cleavage kobs at 160 uM GlcN6P; higher = faster cleavage; RNA array. The method, boiled down: (§1)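 A hybridised Cy3 probe tracked barcoded ribozyme variants, transcribed in situ by E. coli RNA polymerase on sequenced MiSeq chips, at 37 °C. The variants received 40 μM to 10 mM glucosamine-6-phosphate in HEPES/KCl/Mg(OAc)2 buffer. kobs came from decay fits and kcat and KM from weighted Michaelis–Menten fits.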

Data set [2] covers variants of B1. Nature of the data set: self-cleavage kobs at 640 uM GlcN6P; higher = faster cleavage; RNA array. The method, boiled down: as §1
In data set [3] the parent is B1. Nature of the data set: self-cleavage kobs at 2500 uM GlcN6P; higher = faster cleavage; RNA array. The method, boiled down: as §1
Data set [4] covers variants of B1. Nature of the data set: self-cleavage kobs at 10000 uM GlcN6P; higher = faster cleavage; RNA array. The method, boiled down:
as §1

With C10U C11G A33U, the “self-cleavage kobs at 160 uM GlcN6P” value in the data set with glucosamine-6-phosphate [1] was below 1e-05 s⁻¹. Besides, the “self-cleavage kobs at 640 uM GlcN6P” value with glucosamine-6-phosphate [2] was below 1e-05 s⁻¹. In addition, in the data set with glucosamine-6-phosphate [3], the “self-cleavage kobs at 2500 uM GlcN6P” value was below 1e-05 s⁻¹. In the data set with glucosamine-6-phosphate [4], the “self-cleavage kobs at 10000 uM GlcN6P” value is below 1e-05 s⁻¹.
As for A6G U47C U55C C71U, the “self-cleavage kobs at 160 uM GlcN6P” value in the data set with glucosamine-6-phosphate [1] is below 1e-05 s⁻¹. Besides, the “self-cleavage kobs at 640 uM GlcN6P” value with glucosamine-6-phosphate [2] is below 1e-05 s⁻¹. The “self-cleavage kobs at 2500 uM GlcN6P” value with glucosamine-6-phosphate [3] was below 1e-05 s⁻¹.
Regarding U30C G35A A39C G40C C68A, the “self-cleavage kobs at 160 uM GlcN6P” value in the data set with glucosamine-6-phosphate [1] was below 1e-05 s⁻¹. The “self-cleavage kobs at 640 uM GlcN6P” value in the data set with glucosamine-6-phosphate [2] was below 1e-05 s⁻¹.
On to G9U C67A, for which, in the data set with glucosamine-6-phosphate [1], the “self-cleavage kobs at 160 uM GlcN6P” value is below 1e-05 s⁻¹. The “self-cleavage kobs at 640 uM GlcN6P” value in the data set with glucosamine-6-phosphate [2] was below 1e-05 s⁻¹. Also, in the data set with glucosamine-6-phosphate [3], the “self-cleavage kobs at 2500 uM GlcN6P” value is below 1e-05 s⁻¹. For the same variant, the “self-cleavage kobs at 10000 uM GlcN6P” value with glucosamine-6-phosphate [4] is below 1e-05 s⁻¹.
For the variant G37A U49C, in the data set with glucosamine-6-phosphate [1], the “self-cleavage kobs at 160 uM GlcN6P” value was below 1e-05 s⁻¹. The “self-cleavage kobs at 640 uM GlcN6P” value with glucosamine-6-phosphate [2] was below 1e-05 s⁻¹. Further, the “self-cleavage kobs at 2500 uM GlcN6P” value in the data set with glucosamine-6-phosphate [3] is below 1e-05 s⁻¹. In the data set with glucosamine-6-phosphate [4], the “self-cleavage kobs at 10000 uM GlcN6P” value is below 1e-05 s⁻¹.
For G29U G43C U47A G63A, in the data set with glucosamine-6-phosphate [1], the “self-cleavage kobs at 160 uM GlcN6P” value is below 1e-05 s⁻¹. The “self-cleavage kobs at 640 uM GlcN6P” value with glucosamine-6-phosphate [2] is below 1e-05 s⁻¹. Besides, in the data set with glucosamine-6-phosphate [3], the “self-cleavage kobs at 2500 uM GlcN6P” value is below 1e-05 s⁻¹.
As for G29U A36G A52G, in the data set with glucosamine-6-phosphate [1], the “self-cleavage kobs at 160 uM GlcN6P” value was below 1e-05 s⁻¹. Further, in the data set with glucosamine-6-phosphate [3], the “self-cleavage kobs at 2500 uM GlcN6P” value was below 1e-05 s⁻¹.
Take A33G C67G C70A: the “self-cleavage kobs at 160 uM GlcN6P” value with glucosamine-6-phosphate [1] was 4.49e-05 ± 2.2e-05 s⁻¹.
In the case of A6G A12U A36C G43C, the “self-cleavage kobs at 160 uM GlcN6P” value with glucosamine-6-phosphate [1] is below 1e-05 s⁻¹. Moreover, the “self-cleavage kobs at 640 uM GlcN6P” value with glucosamine-6-phosphate [2] was below 1e-05 s⁻¹. Besides, the “self-cleavage kobs at 2500 uM GlcN6P” value with glucosamine-6-phosphate [3] was below 1e-05 s⁻¹.
For G51U A53U C58A C70A, the “self-cleavage kobs at 160 uM GlcN6P” value with glucosamine-6-phosphate [1] worked out at 8.95e-05 ± 1.6e-05 s⁻¹. Besides, the “self-cleavage kobs at 640 uM GlcN6P” value with glucosamine-6-phosphate [2] was determined as 7.01e-05 ± 2.6e-05 s⁻¹. In addition, the “self-cleavage kobs at 2500 uM GlcN6P” value in the data set with glucosamine-6-phosphate [3] was determined as 5.47e-05 ± 2.1e-05 s⁻¹.
For A36U U46A, the “self-cleavage kobs at 160 uM GlcN6P” value with glucosamine-6-phosphate [1] is below 1e-05 s⁻¹. The “self-cleavage kobs at 640 uM GlcN6P” value with glucosamine-6-phosphate [2] is below 1e-05 s⁻¹. In addition, the “self-cleavage kobs at 2500 uM GlcN6P” value with glucosamine-6-phosphate [3] was below 1e-05 s⁻¹. The “self-cleavage kobs at 10000 uM GlcN6P” value with glucosamine-6-phosphate [4] is below 1e-05 s⁻¹.
Consider G35C U57G G59C, for which, in the data set with glucosamine-6-phosphate [1], the “self-cleavage kobs at 160 uM GlcN6P” value was below 1e-05 s⁻¹.
U30G G32A G35A C67U: the “self-cleavage kobs at 160 uM GlcN6P” value with glucosamine-6-phosphate [1] is below 1e-05 s⁻¹. The “self-cleavage kobs at 640 uM GlcN6P” value in the data set with glucosamine-6-phosphate [2] is below 1e-05 s⁻¹.
With G44A U49A, the “self-cleavage kobs at 160 uM GlcN6P” value in the data set with glucosamine-6-phosphate [1] was below 1e-05 s⁻¹. In addition, the “self-cleavage kobs at 640 uM GlcN6P” value with glucosamine-6-phosphate [2] was below 1e-05 s⁻¹. The “self-cleavage kobs at 2500 uM GlcN6P” value with glucosamine-6-phosphate [3] was below 1e-05 s⁻¹. Moreover, in the data set with glucosamine-6-phosphate [4], the “self-cleavage kobs at 10000 uM GlcN6P” value was below 1e-05 s⁻¹.
As to G9A U30G G59C, the “self-cleavage kobs at 160 uM GlcN6P” value in the data set with glucosamine-6-phosphate [1] is below 1e-05 s⁻¹. In addition, in the data set with glucosamine-6-phosphate [2], the “self-cleavage kobs at 640 uM GlcN6P” value is below 1e-05 s⁻¹.
As for A12G A36C U65A, the “self-cleavage kobs at 160 uM GlcN6P” value in the data set with glucosamine-6-phosphate [1] was below 1e-05 s⁻¹. In addition, the “self-cleavage kobs at 640 uM GlcN6P” value with glucosamine-6-phosphate [2] is below 1e-05 s⁻¹. In addition, in the data set with glucosamine-6-phosphate [3], the “self-cleavage kobs at 2500 uM GlcN6P” value was below 1e-05 s⁻¹. Besides, the “self-cleavage kobs at 10000 uM GlcN6P” value in the data set with glucosamine-6-phosphate [4] was below 1e-05 s⁻¹.
On to C11G A12C A52C G59U G66A C67G, for which, in the data set with glucosamine-6-phosphate [1], the “self-cleavage kobs at 160 uM GlcN6P” value is below 1e-05 s⁻¹. In addition, the “self-cleavage kobs at 640 uM GlcN6P” value with glucosamine-6-phosphate [2] is below 1e-05 s⁻¹. Besides, the “self-cleavage kobs at 2500 uM GlcN6P” value in the data set with glucosamine-6-phosphate [3] is below 1e-05 s⁻¹.
For C11U U56G, the “self-cleavage kobs at 160 uM GlcN6P” value with glucosamine-6-phosphate [1] was 4.58e-05 ± 1.6e-05 s⁻¹. Also, the “self-cleavage kobs at 640 uM GlcN6P” value in the data set with glucosamine-6-phosphate [2] was determined as 0.000297 ± 5.6e-05 s⁻¹. Further, in the data set with glucosamine-6-phosphate [3], the “self-cleavage kobs at 2500 uM GlcN6P” value is 0.000254 ± 9.7e-05 s⁻¹. Moreover, the “self-cleavage kobs at 10000 uM GlcN6P” value with glucosamine-6-phosphate [4] was 0.00158 ± 0.00036 s⁻¹.
Turning to C58G U69A, the “self-cleavage kobs at 160 uM GlcN6P” value with glucosamine-6-phosphate [1] came to 5.46e-05 ± 2.7e-05 s⁻¹. For the same variant, the “self-cleavage kobs at 640 uM GlcN6P” value in the data set with glucosamine-6-phosphate [2] was found to be 0.000406 ± 9.6e-05 s⁻¹.
In the case of A15G A33C A64U, the “self-cleavage kobs at 160 uM GlcN6P” value with glucosamine-6-phosphate [1] is below 1e-05 s⁻¹. The “self-cleavage kobs at 2500 uM GlcN6P” value with glucosamine-6-phosphate [3] is below 1e-05 s⁻¹.
As for U30G U57C G62C, the “self-cleavage kobs at 160 uM GlcN6P” value with glucosamine-6-phosphate [1] is below 1e-05 s⁻¹. Further, the “self-cleavage kobs at 640 uM GlcN6P” value with glucosamine-6-phosphate [2] was below 1e-05 s⁻¹.
Regarding G37C A39G G44A, the “self-cleavage kobs at 160 uM GlcN6P” value with glucosamine-6-phosphate [1] was below 1e-05 s⁻¹. Also, the “self-cleavage kobs at 640 uM GlcN6P” value with glucosamine-6-phosphate [2] was below 1e-05 s⁻¹.
